Laboratory results: article PMC4777398 (PLoS ONE, 2016)

Target: pre-dimerized IMPα2/IMPβ1 heterodimer (GST-fused mouse proteins) (mouse, UniProt P52293 1-529; P70168 1-876)
Experiment: AlphaScreen or HTRF
Details: both partners purified

B1: His6-GFP-fused wt P-CTD (rabies virus P-protein C-terminal domain) (domain or fragment)
chain: VAQVAPGPPALEWSATNEEDDLSVEAEIAHQIAESFSKKYKFPSRSSGIFLYNFEQLKMNLDDIVKEAKNVPGVTRLAHDGSKIPLRCVLGWVALANSKKFQLLVEADKLSKIMQDDLNRYTSC
  Kd: 1.7 ± 0.6 nM
